Experimental data published in US20220396612A1 (UNIVERSIT DE TOURS, published 2022).

T1: virus-like particles (VLPs) of BK polyomavirus VP-1 protein, serotype IV (BK virus (BKPyV), serotype IV, UniProt P14996 1-362)
T1 construct: native VLPs; also called VLP IV
T1 chain: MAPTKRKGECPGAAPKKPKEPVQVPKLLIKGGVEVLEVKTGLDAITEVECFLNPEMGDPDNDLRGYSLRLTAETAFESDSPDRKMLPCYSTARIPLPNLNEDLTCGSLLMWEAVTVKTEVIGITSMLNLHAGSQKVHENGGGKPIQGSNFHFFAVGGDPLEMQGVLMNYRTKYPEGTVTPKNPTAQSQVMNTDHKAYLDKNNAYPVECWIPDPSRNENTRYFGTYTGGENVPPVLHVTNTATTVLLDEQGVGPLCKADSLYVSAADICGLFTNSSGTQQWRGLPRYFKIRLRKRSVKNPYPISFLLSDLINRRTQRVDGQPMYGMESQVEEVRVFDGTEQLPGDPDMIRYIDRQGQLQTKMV

T2: virus-like particles (VLPs) of BK polyomavirus VP-1 protein, serotype Ib2 (BK virus (BKPyV), serotype Ib2, PA …, UniProt P03088 1-362)
T2 construct: native VLPs; also the immunogen; also called VLP Ib2; BK Ib2
T2 chain: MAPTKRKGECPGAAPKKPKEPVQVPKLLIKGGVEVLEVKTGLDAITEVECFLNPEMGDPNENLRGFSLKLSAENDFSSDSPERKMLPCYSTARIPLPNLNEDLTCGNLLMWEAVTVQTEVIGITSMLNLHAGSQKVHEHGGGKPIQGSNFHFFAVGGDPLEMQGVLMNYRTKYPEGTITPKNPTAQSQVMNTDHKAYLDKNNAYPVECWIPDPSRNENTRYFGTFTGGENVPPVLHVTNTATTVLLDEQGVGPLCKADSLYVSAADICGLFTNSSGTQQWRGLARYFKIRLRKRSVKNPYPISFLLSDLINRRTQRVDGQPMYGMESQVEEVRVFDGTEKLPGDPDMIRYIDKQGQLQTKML

T3: virus-like particles (VLPs) of BK polyomavirus VP-1 protein, serotype Ia (BK virus (BKPyV), serotype Ia, UniProt P03088 1-361)
T3 construct: self-assembled native VLPs coated on ELISA plates; also called VLP Ia; BKV VP-1, serotype Ia
T3 chain: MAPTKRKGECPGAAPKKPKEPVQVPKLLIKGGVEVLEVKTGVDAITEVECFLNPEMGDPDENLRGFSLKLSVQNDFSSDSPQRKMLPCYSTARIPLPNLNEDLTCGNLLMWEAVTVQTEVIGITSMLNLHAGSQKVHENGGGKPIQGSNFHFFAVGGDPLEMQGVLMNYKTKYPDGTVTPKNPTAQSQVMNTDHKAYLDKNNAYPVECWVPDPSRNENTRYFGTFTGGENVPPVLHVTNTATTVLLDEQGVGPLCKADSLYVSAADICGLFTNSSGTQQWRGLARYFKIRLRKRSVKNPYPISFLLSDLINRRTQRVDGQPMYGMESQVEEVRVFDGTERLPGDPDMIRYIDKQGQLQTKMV

T4: virus-like particles (VLPs) of BK polyomavirus VP-1 protein, serotype II (BK virus (BKPyV), serotype II, UniProt P14996 1-362)
T4 construct: native VLPs; also called VLP II
T4 chain: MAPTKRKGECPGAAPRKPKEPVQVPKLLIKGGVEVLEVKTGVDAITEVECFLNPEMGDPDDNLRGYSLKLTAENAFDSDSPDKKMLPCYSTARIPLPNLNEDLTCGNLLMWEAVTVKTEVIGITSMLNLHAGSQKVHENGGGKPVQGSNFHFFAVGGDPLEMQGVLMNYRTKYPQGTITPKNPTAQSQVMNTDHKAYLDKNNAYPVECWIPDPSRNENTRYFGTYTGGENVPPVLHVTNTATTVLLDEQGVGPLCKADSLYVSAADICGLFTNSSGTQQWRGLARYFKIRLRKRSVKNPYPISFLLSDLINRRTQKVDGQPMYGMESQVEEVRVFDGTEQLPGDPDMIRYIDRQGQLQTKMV

B1: monoclonal antibody ‘F6’ secreted by clone BK6A2F6 (antibody)
heavy: EVQLQQSGPELVKPGASVKISCKASGYSFTGYFMNWVKQSHGKSLEWIGRINPYNGDTFYNQKFKGKATLTVDKSSSTAHMELLSLTSEDSAVYYCGSYYYGDYFDYWGQGTTLTVSSAKTTPPSVYPLAPGSAAQTNSMVTLGCLVKGYFPEPVTVTWNSGSLSSGVHTFPAVLQSDLYTLSSSVTVPSSTWPSETVTCNVAHPASSTKVDKKIVPRDCGCKPCICTVPEVSSVFIFPPKPKDVLTITLTPKVTCVVVDISKDDPEVQFSWFVDDVEVHTAQTQPREEQFNSTFRSVSELPIMHQDWLNGKEFKCRVNSAAFPAPIEKTISKTKGRPKAPQVYTIPPPKEQMAKDKVSLTCMITDFFPEDITVEWQWNGQPAENYKNTQPIMDTDGSYFVYSKLNVQKSNWEAGNTFTCSVLHEGLHNHHTEKSLSHSPGK
light: […]
B2: monoclonal antibody ‘H6’ secreted by clone BK6A2H6 (antibody, V domains shown)
VH: EVQLQQSGPELVKPGASVKISCKASGYSFTGYFMNWVKQSHGKSLEWIGRINPYNGDTFYNQKFKGKATLTVDKSSSTAHMELLSLTSEDSAVYYCGSYYYGDYFDYWGQGTTLTVSS
VL: SIVMTQIPKFLLVSEGDRVTITCKASQSVSNDVAWYQQKSGQSPKLLIYYASNRYTGVPDRFTGSGYGTDFTFTISTVQAEDLAVYFCQQDYSSPLTFGAGTKLELKR

Columns and labels:
[1] = target: T1, virus-like particles (VLPs) of BK …; assay: ELISA on coated VLP; supernatant 1/160
Method: (§1) To do this, the VLPs produced were deposited at a concentration of 1 μg/mL in PBS and incubated overnight at +4° C. The wells were then blocked for 1 h at +37° C. with a PBS/FCS (phosphate-buffered saline/fetal calf serum) mixture. After dilution in a dilution buffer containing FCS, PBS and Tween® 20, the various hybridoma culture supernatants were added for 1 h at +37° C. The wells were washed four times in a row with Wash Buffer and a secondary anti-mouse antibody coupled to peroxidase was added to the 1:2000 dilution for 1 h at +37° C. The wells were washed four more times and the substrate (OPD (ortho phenylene diamine)+H₂O₂) was added for 30 min at room temperature. A stop solution (H₂SO₄ 4N) was then added and each well was read by measuring the absorbance at 492 nm with a spectrophotometer. The value obtained for the average of the control wells (PBS in the first step) is subtracted from the optical density values obtained for each well.

[2] = target: T2, virus-like particles (VLPs) of BK …; assay: ELISA on coated VLP; supernatant 1/160
Method: as §1

[3] = target: T3, virus-like particles (VLPs) of BK …; assay: ELISA on coated VLP; supernatant 1/160
Method: as §1

[4] = target: T4, virus-like particles (VLPs) of BK …; assay: ELISA on coated VLP; supernatant 1/160
Method: as §1

[5] = target: T1, virus-like particles (VLPs) of BK …; assay: ELISA on coated VLP; supernatant 1/1 280
Method: as §1

[6] = target: T2, virus-like particles (VLPs) of BK …; assay: ELISA on coated VLP; supernatant 1/1 280
Method: as §1

[7] = target: T3, virus-like particles (VLPs) of BK …; assay: ELISA on coated VLP; supernatant 1/1 280
Method: as §1

[8] = target: T4, virus-like particles (VLPs) of BK …; assay: ELISA on coated VLP; supernatant 1/1 280
Method: as §1

[9] = target: T1, virus-like particles (VLPs) of BK …; assay: ELISA on coated VLP; supernatant 1/5 120
Method: as §1

[10] = target: T2, virus-like particles (VLPs) of BK …; assay: ELISA on coated VLP; supernatant 1/5 120
Method: as §1

[11] = target: T3, virus-like particles (VLPs) of BK …; assay: ELISA on coated VLP; supernatant 1/5 120
Method: as §1

[12] = target: T4, virus-like particles (VLPs) of BK …; assay: ELISA on coated VLP; supernatant 1/5 120
Method: as §1

Binder	OD 492 nm [1]	OD 492 nm [2]	OD 492 nm [3]	OD 492 nm [4]	OD 492 nm [5]	OD 492 nm [6]	OD 492 nm [7]	OD 492 nm [8]	OD 492 nm [9]	OD 492 nm [10]	OD 492 nm [11]	OD 492 nm [12]
B1	3.46 OD	0.4 OD	3.21 OD	0.27 OD	2.04 OD	0.11 OD	2.11 OD	0.09 OD	0.77 OD	0.08 OD	0.57 OD	0.07 OD
B2	3.14 OD	0.4 OD	3.06 OD	0.14 OD	0.91 OD	0.14 OD	0.81 OD	0.08 OD	0.26 OD	0.09 OD	0.86 OD	0.05 OD
